Measurements from patent publication US20070072210.

Test system: T1, His-tagged full length BAAT1 (baculovirus, produced in Sf9 cells)
T1 sequence: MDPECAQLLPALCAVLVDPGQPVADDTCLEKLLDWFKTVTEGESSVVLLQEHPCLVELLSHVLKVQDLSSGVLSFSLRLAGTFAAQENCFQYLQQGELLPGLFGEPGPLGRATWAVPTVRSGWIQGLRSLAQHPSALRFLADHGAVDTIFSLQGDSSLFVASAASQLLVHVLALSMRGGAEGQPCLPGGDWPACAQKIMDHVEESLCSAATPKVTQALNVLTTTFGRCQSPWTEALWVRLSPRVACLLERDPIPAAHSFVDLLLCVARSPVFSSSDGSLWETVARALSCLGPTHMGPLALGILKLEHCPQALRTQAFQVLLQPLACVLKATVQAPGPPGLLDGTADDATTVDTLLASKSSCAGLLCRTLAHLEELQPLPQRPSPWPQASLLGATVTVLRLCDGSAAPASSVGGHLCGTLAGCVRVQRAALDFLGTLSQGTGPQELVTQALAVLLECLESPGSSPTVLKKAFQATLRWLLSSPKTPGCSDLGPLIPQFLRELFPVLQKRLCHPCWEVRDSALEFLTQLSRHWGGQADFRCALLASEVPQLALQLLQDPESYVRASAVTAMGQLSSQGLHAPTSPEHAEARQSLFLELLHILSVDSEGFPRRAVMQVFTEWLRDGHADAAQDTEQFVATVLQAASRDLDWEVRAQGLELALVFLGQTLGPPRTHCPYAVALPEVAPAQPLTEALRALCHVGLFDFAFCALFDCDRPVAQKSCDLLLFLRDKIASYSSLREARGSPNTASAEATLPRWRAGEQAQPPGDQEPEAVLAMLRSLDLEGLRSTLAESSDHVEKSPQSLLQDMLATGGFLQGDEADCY

## ataxia telangiectasia mutated (endogenous, from human cell lysates)
  in vitro PP2A phosphatase assay on immunoprecipitated ATM, Ser1981 phosphorylation by immunoblot: dephosphorylation of ATM Ser1981 was partially blocked in the presence of full length, baculovirus produced BAAT1
